In series [1] the target is T1, cytochrome P450 17A1 (CYP17A1) (Homo sapiens, UniProt P05093).
T1 sequence (P05093 20-508): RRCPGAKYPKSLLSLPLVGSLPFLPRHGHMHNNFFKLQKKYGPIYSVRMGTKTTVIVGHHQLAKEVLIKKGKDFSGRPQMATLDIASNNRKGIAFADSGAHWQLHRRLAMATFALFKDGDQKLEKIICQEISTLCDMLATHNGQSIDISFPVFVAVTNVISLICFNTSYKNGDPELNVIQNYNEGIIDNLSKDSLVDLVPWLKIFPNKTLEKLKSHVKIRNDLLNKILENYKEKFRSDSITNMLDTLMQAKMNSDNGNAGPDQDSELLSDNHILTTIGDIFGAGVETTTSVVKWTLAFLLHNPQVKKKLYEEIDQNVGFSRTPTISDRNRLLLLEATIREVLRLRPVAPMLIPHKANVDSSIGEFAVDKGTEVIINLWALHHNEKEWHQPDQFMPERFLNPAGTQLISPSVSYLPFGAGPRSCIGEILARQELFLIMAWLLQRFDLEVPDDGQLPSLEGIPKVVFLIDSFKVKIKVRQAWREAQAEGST
It is filed as biochemical.

The next series has as its target T2, CYP17A1 N52Y (Homo sapiens, UniProt P05093, N52Y).
T2 sequence (P05093 20-508 N52Y): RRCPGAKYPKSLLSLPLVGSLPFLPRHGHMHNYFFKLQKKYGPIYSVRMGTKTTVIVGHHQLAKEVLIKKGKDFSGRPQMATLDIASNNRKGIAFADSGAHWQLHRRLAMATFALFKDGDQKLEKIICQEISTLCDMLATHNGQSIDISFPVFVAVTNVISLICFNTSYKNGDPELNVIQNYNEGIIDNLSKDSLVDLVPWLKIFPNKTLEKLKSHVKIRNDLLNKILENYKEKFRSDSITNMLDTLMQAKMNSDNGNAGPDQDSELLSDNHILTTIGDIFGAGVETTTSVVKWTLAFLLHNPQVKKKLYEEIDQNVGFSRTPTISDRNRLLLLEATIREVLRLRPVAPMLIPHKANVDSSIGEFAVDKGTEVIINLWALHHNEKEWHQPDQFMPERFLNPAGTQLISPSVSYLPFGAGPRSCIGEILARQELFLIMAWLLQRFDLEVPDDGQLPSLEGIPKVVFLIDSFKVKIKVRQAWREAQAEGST
In words: X-ray co-crystal structure, […] Å. It is filed as biochemical.

Substrate in series [2]: CC(=O)[C@@]1(O)CC[C@H]2[C@@H]3CC=C4C[C@@H](O)CC[C@]4(C)[C@H]3CC[C@@]21C
In words: purified protein. The settings on record: heme displacement of heme-coordinated water.

Substrate in series [3]: CC(=O)[C@H]1CC[C@H]2[C@@H]3CCC4=CC(=O)CC[C@]4(C)[C@H]3CC[C@]12C
In words: purified protein.

Our source for the IC50 and Km values is PMC10023946 (The Journal of Biological Chemistry, 2023).

Take `C[C@]12CC[C@H](O)CC1=CC[C@@H]1[C@@H]2CC[C@]2(C)C(c3cccnc3)=CC[C@@H]12` [abiraterone]: the IC50 in series [1] turned out to be 69 ± 5 nM; against CYP17A1 N52Y, 51 ± 2 nM.

B1: CYP17A1 N52Y (Homo sapiens; N52Y) (protein)
chain: RRCPGAKYPKSLLSLPLVGSLPFLPRHGHMHNYFFKLQKKYGPIYSVRMGTKTTVIVGHHQLAKEVLIKKGKDFSGRPQMATLDIASNNRKGIAFADSGAHWQLHRRLAMATFALFKDGDQKLEKIICQEISTLCDMLATHNGQSIDISFPVFVAVTNVISLICFNTSYKNGDPELNVIQNYNEGIIDNLSKDSLVDLVPWLKIFPNKTLEKLKSHVKIRNDLLNKILENYKEKFRSDSITNMLDTLMQAKMNSDNGNAGPDQDSELLSDNHILTTIGDIFGAGVETTTSVVKWTLAFLLHNPQVKKKLYEEIDQNVGFSRTPTISDRNRLLLLEATIREVLRLRPVAPMLIPHKANVDSSIGEFAVDKGTEVIINLWALHHNEKEWHQPDQFMPERFLNPAGTQLISPSVSYLPFGAGPRSCIGEILARQELFLIMAWLLQRFDLEVPDDGQLPSLEGIPKVVFLIDSFKVKIKVRQAWREAQAEGST
For the molecule B1, the results for the Km in the series “purified protein [2]” and in “purified protein [3]” (heme displacement of heme-coordinated water) were 0.6 ± 0.1 µM and 1.60 ± 0.09 µM, respectively.

B2: cytochrome P450 17A1 (CYP17A1) (Homo sapiens) (protein)
chain: RRCPGAKYPKSLLSLPLVGSLPFLPRHGHMHNNFFKLQKKYGPIYSVRMGTKTTVIVGHHQLAKEVLIKKGKDFSGRPQMATLDIASNNRKGIAFADSGAHWQLHRRLAMATFALFKDGDQKLEKIICQEISTLCDMLATHNGQSIDISFPVFVAVTNVISLICFNTSYKNGDPELNVIQNYNEGIIDNLSKDSLVDLVPWLKIFPNKTLEKLKSHVKIRNDLLNKILENYKEKFRSDSITNMLDTLMQAKMNSDNGNAGPDQDSELLSDNHILTTIGDIFGAGVETTTSVVKWTLAFLLHNPQVKKKLYEEIDQNVGFSRTPTISDRNRLLLLEATIREVLRLRPVAPMLIPHKANVDSSIGEFAVDKGTEVIINLWALHHNEKEWHQPDQFMPERFLNPAGTQLISPSVSYLPFGAGPRSCIGEILARQELFLIMAWLLQRFDLEVPDDGQLPSLEGIPKVVFLIDSFKVKIKVRQAWREAQAEGST
For the molecule B2, the Km in “purified protein [3]” (heme) turned out to be 5.2 ± 0.5 µM.

Broadly, the IC50 is the concentration needed to halve the response being measured. The low end stands for greater potency, the high end for weaker potency. As a reminder, the Km is the substrate concentration at which the rate is half of its maximum.
